The values below come from paper PMC9976406, “ANGPTL2 binds MAG to efficiently enhance oligodendrocyte differentiation” (Cell & Bioscience, 2023).

The target in experiment [1] is ANGPTL2-Flag (angiopoietin-like protein 2) (UniProt Q9UKU9). Briefly: flow cytometry on cells. The conditions noted are these: MAG constructs expressed on 293T cells; ANGPTL2 row of plots (representative plot; n = 3 in panel H); parent: 41.7. Background: Flow cytometry measures light scatter and fluorescence of single cells or particles in a stream.
The target of a further experiment is LILRB2 (Homo sapiens) (UniProt Q8N423). The note with it: cited from earlier work.
For experiment [2], the target named is human MAG-ECD-FC (extracellular domain of human MAG fused with human Fc) (human) (UniProt P20916). Briefly: BLI; Octet RED96/RED96e; MAG-hFc from conditioned medium loaded on AHC biosensors; purified ANGPTL2 at indicated doses in kinetics buffer.
Experiment [3] addresses T1, murine MAG-ECD-Fc (extracellular domain of murine MAG fused with human Fc) (murine, UniProt P20917 20-516).
T1 construct: myelin-associated glycoprotein (MAG), murine, extracellular domain (ECD); also called mouse MAG-hFc; murine MAG-hFC; source: 293T, transfected, in conditioned medium
T1 sequence (looked up): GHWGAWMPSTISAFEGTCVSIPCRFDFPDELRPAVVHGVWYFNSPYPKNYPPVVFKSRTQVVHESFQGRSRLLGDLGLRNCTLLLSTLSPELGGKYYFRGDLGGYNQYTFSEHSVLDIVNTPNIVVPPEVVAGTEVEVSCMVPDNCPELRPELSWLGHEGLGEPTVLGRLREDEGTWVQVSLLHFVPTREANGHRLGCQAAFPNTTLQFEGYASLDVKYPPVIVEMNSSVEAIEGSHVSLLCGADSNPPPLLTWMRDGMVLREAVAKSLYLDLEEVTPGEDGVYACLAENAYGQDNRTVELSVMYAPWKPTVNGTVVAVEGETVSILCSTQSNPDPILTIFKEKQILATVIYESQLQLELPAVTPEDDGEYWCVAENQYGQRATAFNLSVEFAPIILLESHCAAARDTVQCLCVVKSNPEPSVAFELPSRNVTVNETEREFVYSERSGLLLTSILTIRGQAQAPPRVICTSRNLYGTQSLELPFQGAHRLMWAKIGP
The description is as above. The conditions noted are these: one partner purified.

Experiment [4] addresses human MAG-ECD-FC (extracellular domain of human MAG fused with human Fc) (human) (UniProt P20916). Nature of the experiment: SPR; Biacore T200, CM5 chip; MAG-hFc from conditioned medium captured by pre-immobilised anti-hFc antibody; purified ANGPTL2 injected at indicated doses.
In experiment [5] the target is T1, murine MAG-ECD-Fc (extracellular domain …). The description is as above. The note with it: one partner purified.
Experiment [6] has as its target T2, ANGPTL2-Flag (angiopoietin-like protein 2), Q9UKU9.
T2 chain: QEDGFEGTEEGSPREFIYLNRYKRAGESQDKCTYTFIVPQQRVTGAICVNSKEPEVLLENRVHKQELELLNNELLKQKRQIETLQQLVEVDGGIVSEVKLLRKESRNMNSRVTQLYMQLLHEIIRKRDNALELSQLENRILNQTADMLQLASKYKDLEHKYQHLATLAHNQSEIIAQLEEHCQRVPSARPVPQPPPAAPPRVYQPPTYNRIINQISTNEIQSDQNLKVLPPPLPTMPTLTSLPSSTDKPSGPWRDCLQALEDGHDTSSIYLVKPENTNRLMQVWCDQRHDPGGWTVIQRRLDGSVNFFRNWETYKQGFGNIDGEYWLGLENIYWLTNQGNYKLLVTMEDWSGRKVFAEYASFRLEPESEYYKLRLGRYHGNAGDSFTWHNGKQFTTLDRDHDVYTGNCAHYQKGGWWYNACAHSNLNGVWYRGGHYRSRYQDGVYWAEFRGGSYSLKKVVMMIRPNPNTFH
Briefly: flow cytometry on cells. The note with it: chain shown with the change; MAG constructs expressed on 293T cells; ANGPTL2 row of plots (representative plot; n = 3 in panel H); parent: 41.7.

Sequence of LILRB2 (Homo sapiens) (Q8N423 22-460): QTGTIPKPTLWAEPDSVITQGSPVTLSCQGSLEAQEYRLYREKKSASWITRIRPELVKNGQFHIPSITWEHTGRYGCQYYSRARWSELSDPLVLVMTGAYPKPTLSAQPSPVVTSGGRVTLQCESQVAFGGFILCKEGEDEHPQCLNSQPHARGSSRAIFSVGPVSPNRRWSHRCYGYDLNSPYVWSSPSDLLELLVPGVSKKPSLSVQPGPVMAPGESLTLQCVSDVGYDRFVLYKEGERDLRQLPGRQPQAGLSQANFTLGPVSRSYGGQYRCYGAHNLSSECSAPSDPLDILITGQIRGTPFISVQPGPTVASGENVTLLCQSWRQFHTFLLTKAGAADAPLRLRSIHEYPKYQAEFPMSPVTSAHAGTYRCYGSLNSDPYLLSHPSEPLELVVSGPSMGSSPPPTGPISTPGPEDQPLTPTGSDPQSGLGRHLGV

Consider “human MAG (myelin-associated glycoprotein), full-length, fused with EGFP (N1-hMAG-EGFP) (from UniProt P20916) G389D; Y341A”, for which, in experiment [1], the response (% of EGFP+ cells binding ANGPTL2) worked out at 0.33.
As to ANGPTL2 (from UniProt Q9UKU9), the Kd with LILRB2 (Homo sapiens) was 5.5 nM.

B1: ANGPTL2-Flag (angiopoietin-like protein 2) (ligand, UniProt Q9UKU9 23-493, looked up)
chain: QEDGFEGTEEGSPREFIYLNRYKRAGESQDKCTYTFIVPQQRVTGAICVNSKEPEVLLENRVHKQELELLNNELLKQKRQIETLQQLVEVDGGIVSEVKLLRKESRNMNSRVTQLYMQLLHEIIRKRDNALELSQLENRILNQTADMLQLASKYKDLEHKYQHLATLAHNQSEIIAQLEEHCQRVPSARPVPQPPPAAPPRVYQPPTYNRIINQISTNEIQSDQNLKVLPPPLPTMPTLTSLPSSTDKPSGPWRDCLQALEDGHDTSSIYLVKPENTNRLMQVWCDQRHDPGGWTVIQRRLDGSVNFFRNWETYKQGFGNIDGEYWLGLENIYWLTNQGNYKLLVTMEDWSGRKVFAEYASFRLEPESEYYKLRLGRYHGNAGDSFTWHNGKQFTTLDRDHDVYTGNCAHYQKGGWWYNACAHSNLNGVWYRGGHYRSRYQDGVYWAEFRGGSYSLKKVVMMIRPNPNTFH
notes: angiopoietin-like protein 2 (ANGPTL2), secreted into the conditioned medium of 293T cells; The same ANGPTL2-Flag was used on human and murine MAG; also called purified ANGPTL2 protein; source: 293T, transfected with CMV-ANGPTL2-Flag; conditioned medium collected after 48 h, or purified from it with M2 resin
B1: the Kd in experiment [2] worked out at 9.34 nM; in experiment [3], 16.4 nM; in experiment [4], 6.47 nM; in experiment [5] it was 3.08 nM.

B2: human MAG (myelin-associated glycoprotein), full-length, fused with EGFP (N1-hMAG-EGFP), P20916 G301D; Y303A (protein)
chain: GHWGAWMPSSISAFEGTCVSIPCRFDFPDELRPAVVHGVWYFNSPYPKNYPPVVFKSRTQVVHESFQGRSRLLGDLGLRNCTLLLSNVSPELGGKYYFRGDLGGYNQYTFSEHSVLDIVNTPNIVVPPEVVAGTEVEVSCMVPDNCPELRPELSWLGHEGLGEPAVLGRLREDEGTWVQVSLLHFVPTREANGHRLGCQASFPNTTLQFEGYASMDVKYPPVIVEMNSSVEAIEGSHVSLLCGADSNPPPLLTWMRDGTVLREAVAESLLLELEEVTPAEDDVAACLAENAYGQDNRTVGLSVMYAPWKPTVNGTMVAVEGETVSILCSTQSNPDPILTIFKEKQILSTVIYESELQLELPAVSPEDDGEYWCVAENQYGQRATAFNLSVEFAPVLLLESHCAAARDTVQCLCVVKSNPEPSVAFELPSRNVTVNESEREFVYSERSGLVLTSILTLRGQAQAPPRVICTARNLYGAKSLELPFQGAHRLMWAKIGPVGAVVAFAILIAIVCYITQTRRKKNVTESPSFSAGDNPPVLFSSDFRISGAPEKYESERRLGSERRLLGLRGEPPELDLSYSHSDLGKRPTKDSYTLTEELAEYAEIRVK
Regarding B2, the response (% of EGFP+ cells binding ANGPTL2) in experiment [6] is 0.61.

In general, Kd refers to the constant that tells how readily two partners part at equilibrium.
